One test has as its system CRM1. The settings on record: ref Xu et al., 2012c, 2015; cited from earlier work. The source says:
What then are CRM1 groove features that selectively recognize the key NES features? Arrangement of hydrophobic pockets in the groove likely selects NESs with suitably placed Φ residues. Groove shape, tapering and most constricted at ^ScCRM1 Lys579 (^HsCRM1 Lys568), likely selects for NES helices that transition to strands or NES helices that end (Figure 3C). Is groove-constricting ^HsCRM1 Lys568 perhaps key for differentiating active from false positive NES sequences? We tested mutants ^HsCRM1(K568A) and ^HsCRM1(K568M) for interactions with three previously identified false positive NESs that ...

In a further test the test system is wild type ^HsCRM1. Nature of the test: Pull-down binding assay with immobilized GST-NESs. Also noted: species or system human. The settings on record: ~5 µg immobilized GST-NESs, 7.5 µM ^ScRanGTP, 2.5 µM CRM1, 200 µL.
For the next test, the system named is HeLa cells. Nature of the test: In vivo NES activity assay, EYFP2-SV40^NLS-NES reporter, spinning disk confocal microscope. The class given is cell-based. As to conditions: EYFP2-SV40^NLS-FMRP-1b^NES expressed in HeLa cells; 60X. An excerpt: Figure 2. Structures of NESs with non-helical sequence patterns. (A–E) FMRP^NES (light orange), SMAD4^NES (salmon), HDAC^NES (slate), Pax^NES (pale cyan) and FMRP-1b^NES (deep teal) bound to the ^ScCRM1 groove. […] Average displacements of each Φ Cα in the eight NESs (including mDia2^NES, CDC7^NES, X11L2^NES in Figure 1) from the equivalent Φ Cα of PKI^NES(Ф0L) are 1.3 ± 0.6 (Φ4), 0.8 ± 0.5 (Φ3), 0.7 ± 0.4 (Φ2), 0.9 ± 0.3 (Φ1) and 1.8 ± 0.9 (Φ0) Å. DOI: http://dx.doi.org/10.7554/eLife.23961.012 Figure 2—figure supplement 1. Electron densities of the NES peptides. […] DOI: http://dx.doi.org/10.7554/eLife.23961.013 [drawing 7] Figure 2—figure supplement 2. Engineering class 1b NESs. (A) Sequences of class 1b NESs generated from PKI^NES and FMRP^NES. […] The reactions were extensively washed and visualized with SDS/PAGE and Coomassie staining. (B) Leptomycin B (LMB) sensitive nuclear export activity of FMRP-1b^NES was verified by expressing EYFP2-SV40^NLS-FMRP-1b^NES in HeLa cells and imaged with spinning disk confocal microscope (60X). DOI: http://dx.doi.org/10.7554/eLife.23961.014 [drawing 8]

Another test addresses ^HsCRM1 (Homo sapiens, UniProt O14980). Nature of the test: Differential bleaching, competition titration of MBP-NES to FITC-PKI^NES and CRM1 with excess RanGTP. The class given is binding.
The mark [1] stands for this setting: MBP-NES competes with FITC-PKI^NES for CRM1, excess RanGTP, triplicate, brackets = 68.3% confidence interval.

Take “173KTLSEVEESISTLISQPN^190 [COMMD1^pep, False positive NES peptide from COMM domain-containing protein 1, class 3 match; GST fusion in pull-down]”: the “CRM1 binding of false positive NESs that match NES consensus” value with CRM1 was “do not bind CRM1”. In addition, in the test with wild type ^HsCRM1, the “Pull-down binding to wild type ^HsCRM1” value is “does not bind”.

“GGS-YLKEVDQLRALERLQID [MBP-FMRP-1b^NES, Engineered class 1b NES, an alanine added to FMRP^NES; tested as MBP fusion and as EYFP2-SV40^NLS reporter]”: the “Leptomycin B (LMB) sensitive nuclear export activity” value in the test with HeLa cells is “verified”. For the same substance, in the test with ^HsCRM1 (setting [1]), the dissociation constant (Kd) was determined as 3 µM.

“MBP-CDC7^NES: MBP fusion of the NES of cell division cycle 7-related protein kinase” had a Kd with ^HsCRM1 (setting [1]) of 20 µM.

Take “MBP-FMRP^NES: MBP fusion of the class 2 NES of fragile X mental retardation protein”: the affinity in the test with ^HsCRM1 (setting [1]), expressed as Kd, was 2 µM.

In the case of “MBP-HDAC5^NES: MBP fusion of the NES of Histone deacetylase 5”, the Kd with ^HsCRM1 (setting [1]) stood at 1.6 µM.

With “MBP-Pax^NES: MBP fusion of the NES of Paxillin”, in the test with ^HsCRM1 (setting [1]), the Kd worked out at 0.67 µM. This Kd is about 2.4-fold lower than that of the substance before.

As to “MBP-SMAD4^NES: MBP fusion of the NES of Mothers against decapentaplegic homolog 4 protein”, binding in the test with ^HsCRM1 (setting [1]) was put at a Kd of 4.6 µM.

In the test with ^HsCRM1 (setting [1]), “MBP-X11L2^NES: MBP fusion of the NES from beta-amyloid binding protein X11L2” had a dissociation constant Kd of 1.5 µM. Against the preceding substance, the Kd is about 3.1-fold lower.

For YLKEVDQLRALER [MBP-FMRP-1b^NES mutant], the “CRM1 binding in words, differential bleaching competition” value on ^HsCRM1 (excess RanGTP) was “does not bind CRM1”. The substance also yielded a Kd with ^HsCRM1 (triplicate competition titrations, brackets = 68.3% confidence level, U = undetermined, NB = not binding) of 1700 µM.
